Values quoted from earlier work in publication PMC9836085.

What was measured:
[1] = target: Sas6 (Drosophila melanogaster) (UniProt Q9VAC8)
[2] = target: Rab6 (Drosophila melanogaster) (UniProt O18334)
Sequence of UniProt O18334 (O18334 whole entry): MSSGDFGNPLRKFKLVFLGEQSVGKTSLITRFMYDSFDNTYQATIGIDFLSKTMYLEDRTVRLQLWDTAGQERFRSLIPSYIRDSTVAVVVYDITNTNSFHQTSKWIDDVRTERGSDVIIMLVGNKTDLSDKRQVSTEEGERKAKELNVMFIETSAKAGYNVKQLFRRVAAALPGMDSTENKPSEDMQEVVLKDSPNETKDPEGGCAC

Sequence of UniProt Q9VAC8 (Q9VAC8 whole entry): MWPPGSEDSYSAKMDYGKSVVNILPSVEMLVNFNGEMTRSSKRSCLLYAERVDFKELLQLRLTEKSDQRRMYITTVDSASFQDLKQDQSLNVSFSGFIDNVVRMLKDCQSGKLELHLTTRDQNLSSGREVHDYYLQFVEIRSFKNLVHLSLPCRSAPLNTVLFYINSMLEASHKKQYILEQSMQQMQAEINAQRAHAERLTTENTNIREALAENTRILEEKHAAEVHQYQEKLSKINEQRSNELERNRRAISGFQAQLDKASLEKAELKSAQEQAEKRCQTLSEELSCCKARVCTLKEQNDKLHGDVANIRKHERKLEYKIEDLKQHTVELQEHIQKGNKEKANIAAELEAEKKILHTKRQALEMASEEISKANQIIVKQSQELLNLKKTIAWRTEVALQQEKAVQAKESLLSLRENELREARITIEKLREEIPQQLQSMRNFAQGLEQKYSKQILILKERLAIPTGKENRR

Gorab (from UniProt Q8IQQ4)
Kd [1]: 47 nM | Kd [2]: 2240 nM
